Source: article PMC10714827
Where two headings read alike, the source gives them in different places. Each block holds one molecule with its values, some of them ahead of it.

Key:
[1] = biological target: small protein 36 (sP36), untagged, purified from heterologous expression in E. coli (Methanosarcina mazei); assay: MST; RED-NHS-labelled untagged sP36 at 100 nM held constant (the methods say 10 nM for the AmtB1 series); AmtB1-His6 (12.5 µM to 0.38 nM) or His6-GlnK1 (7.5 µM to 0.23 nM) in 16 dilutions; concentrations on monomeric mass; standard capillaries, 100% excitation power, medium or high MST power; three biological replicates
[2] = biological target: PII-like protein GlnK1 with N-terminal His tag (Methanosarcina mazei) (UniProt Q8PYW7); assay: ITC; 20 µM GlnK1 in the cell titrated with 300 µM sP36; 100 mM potassium phosphate, 2 mM EDTA, pH 7.0, 25°C; model for a single ligand binding site
[3] = biological target: small protein 36 (sP36), untagged, purified from heterologous expression in E. coli (Methanosarcina mazei); assay: SEC; analytical gel filtration, ENrich SEC 650; 0.5 mg untagged sP36 or 0.3 mg His6-sP36; eluted with 50 mM phosphate buffer (150 mM NaCl, pH 8.0), 1 mL/min; BioRad size-exclusion standard
[4] = biological target: His6-sP36 purified from homologous expression in M. mazei (Methanosarcina mazei); assay: as above
[5] = biological target: small protein 36 (sP36), untagged, purified from heterologous expression in E. coli (Methanosarcina mazei); assay: MST; RED-NHS-labelled untagged sP36 at 100 nM held constant (the methods say 10 nM for the AmtB1 series); AmtB1-His6 (12.5 µM to 0.38 nM) or His6-GlnK1 (7.5 µM to 0.23 nM) in 16 dilutions; concentrations on monomeric mass; standard capillaries, 100% excitation power, medium or high MST power; three biological replicates; remark: listed apart in the source

Kd [1]: 260 nM
Molecule: ammonium transporter AmtB1 with C-terminal His6-tag (from UniProt Q8U4U2 1-397) (natural protein)

Kd [2]: 5400 nM | stoichiometry N (sP36 monomers per GlnK1 monomer) [2]: 2 | stoichiometry N [3]: 6
Molecule: small protein 36 (sP36), untagged, purified from heterologous expression in E. coli (natural protein)

stoichiometry N [4]: 6
Molecule: His6-sP36 purified from homologous expression in M. mazei (natural protein)

Kd [5]: 1800 nM
B1: PII-like protein GlnK1 with N-terminal His tag (natural protein)
chain: MVAMKYVIAMIRPERLDAVKRELQKIEVSRLTVSSVSGYGAQKGYMEIYRAMEYDANLLEKIKIEIAVNDEFLEPTIEAIKTGAKGSDGYVGSGKIFVLPLENVIRIRTNETGPEAI
